The text below walks through data of paper PMC8691596.

Test [1] has as its target mouse FcγRI (CD64), histidine-tagged recombinant (mouse) (UniProt P26151). Description: SPR; His-tagged Fc receptor captured by anti-histidine antibody immobilised on CM5; antibody injected at 100 μg/mL for 1 min; response about 5 s before end of injection, blank subtracted; 25°C, HBS-EP+; Biacore T200. (In SPR one partner is held on a chip, and binding of the other changes the refractive index at the surface.)

Test [2] concerns the target rat FcγRI (CD64), histidine-tagged recombinant (rat). Described as above.
In test [3] the target is human FcγRI (CD64), histidine-tagged recombinant (human) (UniProt P12314). The description is as above.
For test [4], the target named is human FcγRIIIa (CD16a) F158 allele, histidine-tagged recombinant (human) (UniProt P08637). The test is described as above.
The target of test [5] is human FcγRIIIa (CD16a) V158 allele, histidine-tagged recombinant (human) (UniProt P08637). The description is as above.
In test [6] the target is human FcγRIIIb (CD16b) NA2 allele, histidine-tagged recombinant (human) (UniProt O75015). Described as above.
Test [7] concerns the target human FcγRIIa (CD32a) R131 allele, histidine-tagged recombinant (human) (UniProt P12318). The test is described as above.
The target of test [8] is human FcγRIIb (CD32b), histidine-tagged recombinant (human) (UniProt P31994). Described as above.
The target is the same in test [9].
The target in test [10] is human FcγRIIIa (CD16a) V158 allele, histidine-tagged recombinant (human) (UniProt P08637).
The target of test [11] is human FcγRI (CD64), histidine-tagged recombinant (human) (UniProt P12314). The test is described as follows: SPR; His-tagged Fc receptor captured by anti-histidine antibody immobilised on CM5; antibody injected at 100 μg/mL for 1 min; response about 5 s before end of injection, blank subtracted; 25°C, HBS-EP+; Biacore T200. The source holds these as a separate data set.
Test [12] shares this target.
For test [13], the target named is human FcRn, histidine-tagged recombinant (human) (UniProt P55899). Description: SPR; human FcRn immobilised directly on CM5 (EDC/NHS); antibody injected at 20 μg/mL (dose response in Fig 4); HBS-EP+ pH 6.0, 25°C; response normalised to wild type.

Like-named read-outs stand apart in the source and are kept apart here.

Sequence of human FcγRIIb (CD32b), histidine-tagged recombinant (human) (P31994 43-217): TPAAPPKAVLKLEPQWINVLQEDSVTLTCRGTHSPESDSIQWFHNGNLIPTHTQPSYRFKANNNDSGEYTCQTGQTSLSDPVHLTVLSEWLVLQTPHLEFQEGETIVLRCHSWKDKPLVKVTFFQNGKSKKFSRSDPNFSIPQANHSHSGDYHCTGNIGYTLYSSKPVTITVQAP
Sequence of human FcRn, histidine-tagged recombinant (human) (P55899 24-297, chain 1 of 2): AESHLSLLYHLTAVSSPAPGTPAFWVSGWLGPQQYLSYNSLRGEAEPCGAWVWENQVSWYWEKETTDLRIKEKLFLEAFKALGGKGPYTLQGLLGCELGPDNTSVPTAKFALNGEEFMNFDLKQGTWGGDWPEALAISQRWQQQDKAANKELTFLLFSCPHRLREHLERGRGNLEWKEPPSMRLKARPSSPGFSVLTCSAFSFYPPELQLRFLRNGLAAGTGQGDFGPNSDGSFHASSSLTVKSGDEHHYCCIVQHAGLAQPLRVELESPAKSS
Sequence of human FcRn, histidine-tagged recombinant (human) (P61769 21-119, chain 2 of 2, further chain): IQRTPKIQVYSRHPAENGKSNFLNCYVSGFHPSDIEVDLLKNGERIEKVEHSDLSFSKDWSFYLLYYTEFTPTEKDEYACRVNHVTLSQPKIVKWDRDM
Sequence of human FcγRI (CD64), histidine-tagged recombinant (human) (P12314 16-292): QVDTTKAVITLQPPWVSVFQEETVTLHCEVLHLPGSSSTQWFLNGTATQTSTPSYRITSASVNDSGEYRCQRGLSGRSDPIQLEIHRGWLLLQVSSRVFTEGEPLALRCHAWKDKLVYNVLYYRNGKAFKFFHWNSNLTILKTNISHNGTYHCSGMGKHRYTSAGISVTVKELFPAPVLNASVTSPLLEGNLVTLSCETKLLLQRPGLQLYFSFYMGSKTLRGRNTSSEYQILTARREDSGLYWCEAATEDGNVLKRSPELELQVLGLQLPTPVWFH
Sequence of mouse FcγRI (CD64), histidine-tagged recombinant (mouse) (P26151 25-297): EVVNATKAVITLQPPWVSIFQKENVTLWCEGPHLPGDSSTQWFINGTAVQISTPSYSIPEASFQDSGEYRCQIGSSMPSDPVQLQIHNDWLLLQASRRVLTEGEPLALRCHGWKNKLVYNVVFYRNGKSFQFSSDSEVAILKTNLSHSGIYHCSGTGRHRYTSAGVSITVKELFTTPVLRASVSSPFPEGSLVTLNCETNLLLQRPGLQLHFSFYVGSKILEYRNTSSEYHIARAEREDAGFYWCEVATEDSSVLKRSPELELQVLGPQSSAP
Sequence of human FcγRIIa (CD32a) R131 allele, histidine-tagged recombinant (human) (P12318 34-217): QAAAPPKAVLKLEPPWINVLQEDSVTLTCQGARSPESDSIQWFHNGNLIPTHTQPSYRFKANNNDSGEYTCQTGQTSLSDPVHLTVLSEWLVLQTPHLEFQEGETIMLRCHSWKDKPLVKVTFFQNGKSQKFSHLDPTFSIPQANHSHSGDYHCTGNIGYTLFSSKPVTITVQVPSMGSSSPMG
Sequence of human FcγRIIIa (CD16a) V158 allele, histidine-tagged recombinant (human) (P08637 17-208): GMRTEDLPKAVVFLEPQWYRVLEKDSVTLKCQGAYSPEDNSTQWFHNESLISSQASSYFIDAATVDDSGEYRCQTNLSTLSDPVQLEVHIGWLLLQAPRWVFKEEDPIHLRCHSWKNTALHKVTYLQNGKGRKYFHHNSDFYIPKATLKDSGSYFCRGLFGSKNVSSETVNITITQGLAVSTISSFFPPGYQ
Sequence of human FcγRIIIa (CD16a) F158 allele, histidine-tagged recombinant (human) (P08637 17-208): as above
Sequence of human FcγRIIIb (CD16b) NA2 allele, histidine-tagged recombinant (human) (O75015 17-200): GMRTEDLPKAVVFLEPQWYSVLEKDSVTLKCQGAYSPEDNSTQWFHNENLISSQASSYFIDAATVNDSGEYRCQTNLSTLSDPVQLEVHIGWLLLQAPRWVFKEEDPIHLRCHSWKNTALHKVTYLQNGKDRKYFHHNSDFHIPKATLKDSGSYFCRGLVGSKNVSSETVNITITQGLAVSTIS

Turning to “anti-CD3 IgG1 L234A/L235A (LALA) (antibody)”, the mean response was -3.3 RU in test [1] and -4.9 RU in test [2].

Consider “anti-CD3 IgG1 L234A/L235A/P329G (LALAPG) (antibody)”, for which the mean response was -6.2 RU in test [1] and -5.2 RU in test [2].

For “anti-CD3 IgG1 L234G/L235S/G236R (antibody)”, the mean response in test [3] is -5.2 RU; in test [4], -4.7 RU; in test [5], -14.4 RU; in [6] it was -6.4 RU; in test [7], -4.8 RU; in test [8], -5.1 RU. Also, the mean response in test [1] is -5.9 RU; in test [2], -4.2 RU.

For “anti-CD3 IgG1 L234S/L235T/G236R (antibody)”, the mean response was -5.2 RU in test [3]; 3.3 RU in test [4]; -11.3 RU in [5]; 4.7 RU in test [6]; 1.4 RU in test [7]; 3.9 RU in test [8]. In addition, the mean response in [1] is -7.5 RU; in test [2], -5.1 RU.

Regarding “anti-CD3 IgG1 L234S/L235V/G236R (antibody)”, the mean response is -5.4 RU in test [3]; -3.4 RU in [4]; -12.7 RU in test [5]; -4.8 RU in test [6]; -3.4 RU in test [7]; -4.2 RU in test [8]. The mean response in test [1] is -8.1 RU; in test [2] it was -4.8 RU.

Regarding “anti-CD3 IgG1 L234T/L235Q/G236R (antibody)”, the mean response in [3] is -3.2 RU; in test [4], -0.9 RU; in test [5], -10.7 RU; in test [6], -3 RU; in test [7], -0.2 RU; in test [8], -2.8 RU. For the same substance, the results for the mean response in [1] and in [2] were -5.8 RU and -2.4 RU, respectively.

Take “anti-CD3 IgG1 L234T/L235T/G236R (antibody)”: the mean response is -3.1 RU in [3]; -2 RU in [4]; -8.6 RU in test [5]; -4.4 RU in test [6]; -2.8 RU in test [7]; -3.3 RU in [8]. Further, the results for the mean response in test [1] and in test [2] were -5.5 RU and -3.5 RU, respectively.

With “anti-CD20 IgG1 L234A/L235A (LALA) (antibody)”, the Mean normalised luminescence (% of wild-type reference); Promega Fc effector bioassay, Jurkat NFAT-luciferase cells with the receptor + Raji cells, antibody 10 μg/mL in test [9] was determined as 40.6%. For the same substance, the mean response in test [1] was -12.2 RU; in test [2], -5.3 RU.

With “anti-CD20 IgG1 L234A/L235A/P329G (LALAPG) (antibody)”, the figures for the Mean normalised luminescence (% of wild-type reference); Promega Fc effector bioassay, Jurkat NFAT-luciferase cells with the receptor + Raji cells, antibody 10 μg/mL in test [10] and in test [9] were 2.1% and 1.7%, respectively. The values for the mean response in [1] and in test [2] were 2.4 RU and 0.7 RU, respectively.

“anti-CD20 IgG1 L234G/L235S/G236R (antibody)”: the Mean normalised luminescence (% of wild-type reference); Promega Fc effector bioassay, Jurkat NFAT-luciferase cells with the receptor + Raji cells, antibody 10 μg/mL was 2.5% in [10] and 1.7% in test [9]. The mean response in test [11] was 1.9 RU; in test [3], -1.5 RU; in [4], 1 RU; in test [5], 1 RU; in [6], -1.6 RU; in [7], 2.1 RU. Besides, the mean response in [8] was -0.1 RU; in [1], -2.1 RU; in [2], -3.9 RU.

On to “anti-CD20 IgG1 L234S/L235T/G236R (antibody)”, for which the mean response in test [3] was -1.3 RU; in test [4] it was 1.9 RU; in [5], -6.3 RU; in test [6], -3 RU; in test [7], 2.6 RU; in test [8] it was 0.5 RU. Also, the mean response in test [1] is -5.4 RU; in test [2] it was -2.4 RU.

In the case of “anti-CD20 IgG1 L234T/L235T/G236R (antibody)”, the Mean normalised luminescence (% of wild-type reference); Promega Fc effector bioassay, Jurkat NFAT-luciferase cells with the receptor + Raji cells, antibody 10 μg/mL in test [12] and in test [9] was 1.9% in each case. Also, the mean response in test [3] was -2.7 RU; in test [4] it was 1.6 RU; in [5], -0.2 RU; in [6], -0.1 RU; in test [7], 1.9 RU; in test [8], 0.6 RU. For the same substance, the mean response in [2] was -0.8 RU.

Regarding “anti-CD20 IgG1 N297Q (aglycosyl) (antibody)”, the Mean normalised luminescence (% of wild-type reference); Promega Fc effector bioassay, Jurkat NFAT-luciferase cells with the receptor + Raji cells, antibody 10 μg/mL in test [9] was 1.6%.

Take “anti-CD52 IgG1 L234A/L235A (LALA) (antibody)”: the mean normalised binding response (% of wild-type reference) in [13] is 105%. Further, the mean response was 452 RU in test [3], 1.8 RU in test [1] and -0.7 RU in [2].

As to “anti-CD52 IgG1 L234A/L235A/P329G (LALAPG) (antibody)”, the mean normalised binding response (% of wild-type reference) in test [13] worked out at 105%. The values for the mean response in [3], in test [1] and in [2] were 33.7 RU, -2.1 RU and -0.8 RU, respectively.

Regarding “anti-CD52 IgG1 L234G/L235S/G236R (antibody)”, the mean normalised binding response (% of wild-type reference) in test [13] came out at 118%. Besides, the mean response was -3.5 RU in test [3]; -4.2 RU in test [4]; -2.4 RU in test [5]; -4.8 RU in test [6]; -3.5 RU in [7]; -5.5 RU in test [8]. Further, the mean response in [1] is -2.3 RU; in test [2], -1.7 RU.

As for “anti-CD52 IgG1 L234S/L235T/G236R (antibody)”, in test [13], the mean normalised binding response (% of wild-type reference) was determined as 116%. Also, the mean response is -5.1 RU in test [3]; -3.3 RU in [4]; -5.6 RU in test [5]; -4.3 RU in [6]; -3.1 RU in [7]; -4.4 RU in test [8]. The results for the mean response in [1] and in [2] were -4.6 RU and -2.9 RU, respectively.

With “anti-CD52 IgG1 L234S/L235V/G236R (antibody)”, the mean normalised binding response (% of wild-type reference) in [13] is 119%. In addition, the mean response in test [3] is -20.3 RU; in [4], 2.2 RU; in [5], -1.3 RU; in [6], 2.6 RU; in test [7] it was -4.2 RU; in test [8], 2.4 RU. The mean response was -2.5 RU in test [1] and -2.1 RU in test [2].

As to “anti-CD52 IgG1 L234T/L235Q/G236R (antibody)”, the mean normalised binding response (% of wild-type reference) in [13] came out at 115%. The mean response was -10.6 RU in test [3]; 0.7 RU in test [4]; -3.1 RU in test [5]; 0.4 RU in test [6]; -2.2 RU in [7]; 1.3 RU in test [8]. In addition, the mean response is -1.4 RU in test [1] and 0.5 RU in [2].

Turning to “anti-CD52 IgG1 L234T/L235T/G236R (antibody)”, the mean normalised binding response (% of wild-type reference) in [13] was 118%. Further, the mean response in [3] was -20.7 RU; in [4], -1.9 RU; in test [5], -2 RU; in test [6] it was 0.8 RU; in test [7] it was -8.7 RU; in test [8] it was -0.1 RU. Also, the mean response in [1] was -3.9 RU; in test [2], -3.4 RU.

Take “anti-CD52 IgG1 N297Q (aglycosyl) (antibody)”: the mean normalised binding response (% of wild-type reference) in test [13] was 103%. Also, the mean response in test [3] is 431 RU; in test [1], 50.4 RU.
